Here are results for two molecules from PMC12342132, “Mechanistic insights into the GEF activity of the human MON1A/CCZ1/C18orf8 complex” (Protein & Cell, 2025).

T1: C18orf8 (1–657) (human, UniProt Q96DM3 1-657)
T1 construct: Subunit of m3, written alone for the pairwise contacts in the structure
T1 sequence (looked up): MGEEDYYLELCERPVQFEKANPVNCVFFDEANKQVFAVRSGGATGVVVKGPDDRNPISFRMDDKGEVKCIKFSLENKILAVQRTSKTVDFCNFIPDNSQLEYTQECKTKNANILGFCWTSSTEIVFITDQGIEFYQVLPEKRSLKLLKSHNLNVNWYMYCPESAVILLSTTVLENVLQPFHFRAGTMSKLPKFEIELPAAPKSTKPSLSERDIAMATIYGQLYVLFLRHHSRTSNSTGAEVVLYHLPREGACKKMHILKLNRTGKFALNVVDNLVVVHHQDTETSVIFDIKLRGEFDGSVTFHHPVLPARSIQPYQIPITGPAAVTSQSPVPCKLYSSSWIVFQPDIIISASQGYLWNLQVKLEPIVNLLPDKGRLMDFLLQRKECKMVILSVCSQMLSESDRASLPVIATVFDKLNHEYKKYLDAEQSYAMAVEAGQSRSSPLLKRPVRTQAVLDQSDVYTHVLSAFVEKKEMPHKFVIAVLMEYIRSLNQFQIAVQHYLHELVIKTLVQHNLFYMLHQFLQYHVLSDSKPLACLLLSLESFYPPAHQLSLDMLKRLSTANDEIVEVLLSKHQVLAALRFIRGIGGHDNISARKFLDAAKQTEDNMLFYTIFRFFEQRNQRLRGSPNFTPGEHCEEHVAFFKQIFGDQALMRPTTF

B1: CCZ1 (1–482) (natural protein, human, UniProt P86791 1-482, looked up)
chain: MAAAAAGAGSGPWAAQEKQFPPALLSFFIYNPRFGPREGQEENKILFYHPNEVEKNEKIRNVGLCEAIVQFTRTFSPSKPAKSLHTQKNRQFFNEPEENFWMVMVVRNPIIEKQSKDGKPVIEYQEEELLDKVYSSVLRQCYSMYKLFNGTFLKAMEDGGVKLLKERLEKFFHRYLQTLHLQSCDLLDIFGGISFFPLDKMTYLKIQSFINRMEESLNIVKYTAFLYNDQLIWSGLEQDDMRILYKYLTTSLFPRHIEPELAGRDSPIRAEMPGNLQHYGRFLTGPLNLNDPDAKCRFPKIFVNTDDTYEELHLIVYKAMSAAVCFMIDASVHPTLDFCRRLDSIVGPQLTVLASDICEQFNINKRMSGSEKEPQFKFIYFNHMNLAEKSTVHMRKTPSVSLTSVHPDLMKILGDINSDFTRVDEDEEIIVKAMSDYWVVGKKSDRRELYVILNQKNANLIEVNEEVKKLCATQFNNIFFLD
notes: human CCZ1, residues 1-482; Subunit of m3, written alone for the pairwise contacts in the structure
B2: MON1A (235–652) (domain or fragment, human, UniProt Q86VX9 235-652, looked up)
chain: GTTEGDEEDATEAWRLHQKHVFVLSEAGKPVYSRYGSEEALSSTMGVMVALVSFLEADKNAIRSIHADGYKVVFVRRSPLVLVAVARTRQSAQELAQELLYIYYQILSLLTGAQLSHIFQQKQNYDLRRLLSGSERITDNLLQLMARDPSFLMGAARCLPLAAAVRDTVSASLQQARARSLVFSILLARNQLVALVRRKDQFLHPIDLHLLFNLISSSSSFREGEAWTPVCLPKFNAAGFFHAHISYLEPDTDLCLLLVSTDREDFFAVSDCRRRFQERLRKRGAHLALREALRTPYYSVAQVGIPDLRHFLYKSKSSGLFTSPEIEAPYTSEEEQERLLGLYQYLHSRAHNASRPLKTIYYTGPNENLLAWVTGAFELYMCYSPLGTKASAVSAIHKLMRWIRKEEDRLFILTPLTY
notes: Subunit of m3, written alone for the pairwise contacts in the structure

One assay addresses T1, C18orf8 (1–657). In words: cryo-EM structure; MON1A (235–652)/CCZ1 (1–482)/C18orf8 (1–657)/Rab7A (1–181) T22N complex, 3.41 Å. Particulars: both partners purified.
For the assay “CCZ1 (1–482)”, the target named is B1. The description is as above. To be noted: both partners purified.

Take B1: the binding result with C18orf8 (1–657) is recorded as “binds”.

Regarding B2, the binding result with C18orf8 (1–657) and with CCZ1 (1–482) was “binds” throughout.
